Measurements: patent US20150266962A1 (Pfizer, published 2015)

T1: recombinant human IL-13 receptor alpha 2 (hIL-13-Rα2) (human, UniProt Q14627 27-343)
T1 construct: Recombinant soluble antigen coated on ELISA plates or used in Biacore; also called rec hIL-13Rα2; rhIL-13Rα2
T1 sequence (looked up): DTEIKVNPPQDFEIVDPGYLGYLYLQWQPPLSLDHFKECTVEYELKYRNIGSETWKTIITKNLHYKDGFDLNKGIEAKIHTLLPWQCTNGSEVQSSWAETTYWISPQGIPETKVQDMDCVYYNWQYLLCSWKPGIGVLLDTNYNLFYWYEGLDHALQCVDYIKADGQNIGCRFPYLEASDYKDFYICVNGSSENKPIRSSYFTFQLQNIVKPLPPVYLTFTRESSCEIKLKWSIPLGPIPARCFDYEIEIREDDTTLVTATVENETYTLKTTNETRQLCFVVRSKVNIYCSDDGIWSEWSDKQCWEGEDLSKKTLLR


Tests used:
[1] = target: T1, recombinant human IL-13 receptor alpha …; assay: competition ELISA on coated recombinant hIL-13-Rα2, competitor biotin-ch08
Method: A competition ELISA was performed to assess whether hu08 1.0 and hu08 v1.1 compete with ch08 for IL-13-Rα2 binding. Recombinant hIL-13-Rα2 was coated onto 96-well plates at 50 ul of […] in PBS overnight at 4° C. Plates were then blocked and washed following standard ELISA protocol. A 3-fold serially diluted ch08, hu08 1.0 and hu08 v1.1, and negative control ch07 (2× final concentration) were mixed with biotinylated ch08 (2×EC₅₀). 50 μl of the antibody and biotin-ch08 mixture were added to the plate and incubated for 1 hour at room temperature. The amount of biotin-ch08 bound was detected by HRP conjugated streptavidin.

[2] = target: T1, recombinant human IL-13 receptor alpha …; assay: direct ELISA on coated recombinant hIL-13-Rα2
Method: Humanized hu08 binding to recombinant hIL-13-Rα2 was evaluated by a standard direct ELISA. Recombinant hIL-13-Rα2 was coated onto a 96-well plate. Serially diluted chimeric antibodies or humanized antibodies in combinations of heavy and light chains of versions 1.0 and 1.1 e.g. hu08 v1.0 HC/1.0 LC, hu08 v1.0 HC/v1.1 LC, hu08 v1.1 HC/v1.0 LC, and hu08 v1.1 HC/v1.1 LC, were added to the plate and incubated at room temperature for 1-2 hours. The binding was detected by HRP conjugated goat anti-human Ig Kappa.

[3] = target: T1, recombinant human IL-13 receptor alpha …; assay: standard ELISA on hIL-13-Rα2 (given as ED50)
[4] = target: T1, recombinant human IL-13 receptor alpha …; assay: competition ELISA on hIL-13-Rα2, competitor biotinylated ch08
Method: The binding properties of the cysteine mutants to hIL-13-Rα2 were evaluated by a standard ELISA and a competition ELISA. […] This conclusion was confirmed by a competition ELISA with biotinylated ch08.

[5] = target: T1, recombinant human IL-13 receptor alpha …; assay: competition ELISA on plate (recombinant IL-13-Rα2), competitor biotinylated ch07
[6] = target: T1, recombinant human IL-13 receptor alpha …; assay: direct ELISA on rhIL-13Rα2 (given as ED50)

| EC50 [3] [nM] | IC50 [4] [nM] | Binder | other results |
| --- | --- | --- | --- |
| 0.18 | 2.73 | hu08v1.0/1.0-K188C (antibody, human IgG1, kappa, also called hu08/kK188C; kK188C) heavy: not shown light: DIQMTQSPSSLSASVGDRVTITCKASQDVGTAVAWYQQKPGKAPKLLIYSASYRSTGVPSRFSGSGSGTDFTLTISSLQPEDFATYYCQHHYSAPWTFGGGTKVEIKRTVAAPSVFIFPPSDEQLKSGTASVVCLLNNFYPREAKVQWKVDNALQSGNSQESVTEQDSKDSTYSLSSTLTLSKADYECHKVYACEVTHQGLSSPVTKSFNRGEC | – |
| 0.12 | 2.32 | hu08v1.0/1.0-L443C/A111C (antibody, also called hu08/L443C/kA111C; L443C/kA111C) heavy: not shown light: DIQMTQSPSSLSASVGDRVTITCKASQDVGTAVAWYQQKPGKAPKLLIYSASYRSTGVPSRFSGSGSGTDFTLTISSLQPEDFATYYCQHHYSAPWTFGGGTKVEIKRTVACPSVFIFPPSDEQLKSGTASVVCLLNNFYPREAKVQWKVDNALQSGNSQESVTEQDSKDSTYSLSSTLTLSKADYEKHKVYACEVTHQGLSSPVTKSFNRGEC | – |
| 0.22 | 4.07 | hu08v1.0/1.0-A111C (antibody, also called hu08/kA111C; kA111C) heavy: not shown light: DIQMTQSPSSLSASVGDRVTITCKASQDVGTAVAWYQQKPGKAPKLLIYSASYRSTGVPSRFSGSGSGTDFTLTISSLQPEDFATYYCQHHYSAPWTFGGGTKVEIKRTVACPSVFIFPPSDEQLKSGTASVVCLLNNFYPREAKVQWKVDNALQSGNSQESVTEQDSKDSTYSLSSTLTLSKADYEKHKVYACEVTHQGLSSPVTKSFNRGEC | – |
| 0.09 | 2.1 | hu08v1.0/1.0-K392C/L443C (antibody, also called hu08/L443C/K392C; L443C/K392C) heavy: not shown light: DIQMTQSPSSLSASVGDRVTITCKASQDVGTAVAWYQQKPGKAPKLLIYSASYRSTGVPSRFSGSGSGTDFTLTISSLQPEDFATYYCQHHYSAPWTFGGGTKVEIKRTVAAPSVFIFPPSDEQLKSGTASVVCLLNNFYPREAKVQWKVDNALQSGNSQESVTEQDSKDSTYSLSSTLTLSKADYEKHKVYACEVTHQGLSSPVTKSFNRGEC | – |

Further lines, the binder ahead of its results:

| Binder | EC50 [3] [nM] | IC50 [4] [nM] | other results |
| --- | --- | --- | --- |
| humanized antibody hu08 v1.0 HC/v1.1 LC (antibody, IgG1, V domains shown, hIgG1 constant region and hIgKappa constant region; also called hu08 v1.0/1.1) VH: EVQLVESGGGLVQPGGSLRLSCAASGFTFSRNGMSWVRQAPGKGLEWVATVSSGGSYIYYADSVKGRFTISRDNAKNSLYLQMNSLRAEDTAVYYCARQGTTALATRFFDVWGQGTLVTVSS VL: DIQMTQSPSSLSASVGDRVTITCKASQDVGTAVAWYQQIPGKAPKLLIYSASYRSTGVPDRFSGSGSGTDFSFIISSLQPEDFATYYCQHHYSAPWTFGGGTKVEIK | – | – | IC50 [1]: 2.14 nM; EC50 [2]: 0.143 nM |
| humanized antibody hu08 v1.1 HC/v1.0 LC (antibody, IgG1, V domains shown, hIgG1 constant region and hIgKappa constant region; also called hu08 v1.1/1.0) VH: EVQLVESGGGLVQPGGSLRLSCAASGFTFSRNGMSWVRQTPDKRLEWVATVSSGGSYIYYADSVKGRFTISRDNAKNSLYLQMSSLRAEDTAVYYCARQGTTALATRFFDVWGQGTLVTVSS VL: DIQMTQSPSSLSASVGDRVTITCKASQDVGTAVAWYQQKPGKAPKLLIYSASYRSTGVPSRFSGSGSGTDFTLTISSLQPEDFATYYCQHHYSAPWTFGGGTKVEIK | – | – | IC50 [1]: 2.56 nM; EC50 [2]: 0.163 nM |
| hu08 with light chain mutation D185A (hu08MAC, unconjugated) (antibody, also called hu08/kD185A) heavy: not shown light: DIQMTQSPSSLSASVGDRVTITCKASQDVGTAVAWYQQKPGKAPKLLIYSASYRSTGVPSRFSGSGSGTDFTLTISSLQPEDFATYYCQHHYSAPWTFGGGTKVEIKRTVAAPSVFIFPPSDEQLKSGTASVVCLLNNFYPREAKVQWKVDNALQSGNSQESVTEQDSKDSTYSLSSTLTLSKAAYEKHKVYACEVTHQGLSSPVTKSFNRGEC | 0.108 | 2.36 | – |
| hu08v1.0/1.0-L443C (antibody, also called hu08/L443C) heavy: not shown light: DIQMTQSPSSLSASVGDRVTITCKASQDVGTAVAWYQQKPGKAPKLLIYSASYRSTGVPSRFSGSGSGTDFTLTISSLQPEDFATYYCQHHYSAPWTFGGGTKVEIKRTVAAPSVFIFPPSDEQLKSGTASVVCLLNNFYPREAKVQWKVDNALQSGNSQESVTEQDSKDSTYSLSSTLTLSKADYEKHKVYACEVTHQGLSSPVTKSFNRGEC | 0.1 | 2.25 | – |
| hu08v1.0/1.0-L443C/K183C (antibody, also called hu08/L443C/kK183C; L443C/kK183C) heavy: not shown light: DIQMTQSPSSLSASVGDRVTITCKASQDVGTAVAWYQQKPGKAPKLLIYSASYRSTGVPSRFSGSGSGTDFTLTISSLQPEDFATYYCQHHYSAPWTFGGGTKVEIKRTVAAPSVFIFPPSDEQLKSGTASVVCLLNNFYPREAKVQWKVDNALQSGNSQESVTEQDSKDSTYSLSSTLTLSCADYEKHKVYACEVTHQGLSSPVTKSFNRGEC | 0.11 | 2.45 | – |
| hu08v1.0/1.0-Q347C (antibody, also called hu08/Q347C) heavy: not shown light: DIQMTQSPSSLSASVGDRVTITCKASQDVGTAVAWYQQKPGKAPKLLIYSASYRSTGVPSRFSGSGSGTDFTLTISSLQPEDFATYYCQHHYSAPWTFGGGTKVEIKRTVAAPSVFIFPPSDEQLKSGTASVVCLLNNFYPREAKVQWKVDNALQSGNSQESVTEQDSKDSTYSLSSTLTLSKADYEKHKVYACEVTHQGLSSPVTKSFNRGEC | 0.1 | 2.07 | – |
| hu08v1.0/1.0-Q347C/K183C (antibody, human IgG1, kappa, also called hu08/Q347C/kK183C; Q347C/kK183C) heavy: not shown light: DIQMTQSPSSLSASVGDRVTITCKASQDVGTAVAWYQQKPGKAPKLLIYSASYRSTGVPSRFSGSGSGTDFTLTISSLQPEDFATYYCQHHYSAPWTFGGGTKVEIKRTVAAPSVFIFPPSDEQLKSGTASVVCLLNNFYPREAKVQWKVDNALQSGNSQESVTEQDSKDSTYSLSSTLTLSCADYEKHKVYACEVTHQGLSSPVTKSFNRGEC | 0.13 | 2.41 | – |
| hu08v1.0/1.0-V422C/L443C (antibody, also called hu08/L443C/V422C; L443C/V422C) heavy: not shown light: DIQMTQSPSSLSASVGDRVTITCKASQDVGTAVAWYQQKPGKAPKLLIYSASYRSTGVPSRFSGSGSGTDFTLTISSLQPEDFATYYCQHHYSAPWTFGGGTKVEIKRTVAAPSVFIFPPSDEQLKSGTASVVCLLNNFYPREAKVQWKVDNALQSGNSQESVTEQDSKDSTYSLSSTLTLSKADYEKHKVYACEVTHQGLSSPVTKSFNRGEC | 0.09 | 2.17 | – |
| hu08v1.0/1.0-K183C (antibody, human IgG1, kappa, also called hu08/kK183C; kK183C) heavy: not shown light: DIQMTQSPSSLSASVGDRVTITCKASQDVGTAVAWYQQKPGKAPKLLIYSASYRSTGVPSRFSGSGSGTDFTLTISSLQPEDFATYYCQHHYSAPWTFGGGTKVEIKRTVAAPSVFIFPPSDEQLKSGTASVVCLLNNFYPREAKVQWKVDNALQSGNSQESVTEQDSKDSTYSLSSTLTLSCADYEKHKVYACEVTHQGLSSPVTKSFNRGEC | 0.11 | 2.47 | – |
| hu08v1.0/1.0-Q347C/A111C (antibody, also called hu08/Q347C/kA111C; Q347C/kA111C) heavy: not shown light: DIQMTQSPSSLSASVGDRVTITCKASQDVGTAVAWYQQKPGKAPKLLIYSASYRSTGVPSRFSGSGSGTDFTLTISSLQPEDFATYYCQHHYSAPWTFGGGTKVEIKRTVACPSVFIFPPSDEQLKSGTASVVCLLNNFYPREAKVQWKVDNALQSGNSQESVTEQDSKDSTYSLSSTLTLSKADYEKHKVYACEVTHQGLSSPVTKSFNRGEC | 0.1 | 2.44 | – |
| hu07 heavy chain v1.5 paired with chimeric light chain (antibody, V domains shown, hIgG1 constant region; the chimeric light chain is the mu07 VL with human kappa constant region; also called hu07v1.5/kc; hu07 v1.5 paired with chimeric light chain Kc) VH: EVQLVESGGGLVQPGGSLRLSCAASGFSLTKYGVHWVRQAPGKGLEWVGVKWAGGSTDYNSALMSRFTISKDNAKNSLYLQMNSLRAEDTAVYYCARDHRDAMDYWGQGTLVTVSS VL: QVVLTQSPAIMSASPGERVTMTCTASLSVSSTYLHWYHQKPGSSPKLWIYSTSNLASGVPARFSGSGSGTSYSLTISSMEAEDAATYYCHQYHRSPLTFGSGTKLELK | – | – | IC50 [5]: 3.03 nM; EC50 [6]: 0.183 nM |
